{"source": "patent US6124262A", "about": "“Compositions and methods for reducing adhesiveness of defective red blood cells” (The Regents of the University of California, dated 2000)", "key": {"[1]": {"test_system": "P. falciparum-infected erythrocytes (rosetting)", "assay_type": "cell-based", "conditions": "FIG. 3B; read-out: IC50, competitive inhibition of rosetting", "method": "(§1) The Gambian FCR-3 strain of P. falciparum was cultured according to the literature method [Trager, W. & J. Jensen (1976) Science 193:673-675]. Cultures were synchronized at the ring stage by sorbitol lysis of mature forms [Lambros, C. & J. P. Vanderberg (1980) J. Parasitology 65:418-20]. Knobless parasite cultures were produced from a knobby FCR-3 line and maintained as described previously [Crandall, I. E. et al. (1994) Cell Adhesion & Communication 2(6):503-510].\n(§2) Cytoadherence assays were carried out as described previously [Udeinya et al. (1981), supra; Crandall et al. (1991), supra] except that BTS buffer (50 mM Bis Tris, 130 mM NaCl, pH 6.6) was substituted for BTC buffer (i.e. the Ca^+ was omitted from the cytoadherence assay buffer). Rosetting was measured as described previously [Crandall et al. (1994), supra].\n(§3) In order to determine if the action of the antibody was due to the non-competitive removal of the sequence FSFCETNGLEYI [SEQ ID NO:44], the antibody's epitope, or whether it was the result of steric hindrance or induced conformational change of the protein associated with the antibody's binding, the effect of adding increased amounts of the peptide FSFCETNGLE [SEQ ID NO:26] to rosetting and cytoadherence assays was determined. […] FIG. 3A illustrates the results of adding the indicated peptides to the incubation medium of a cytoadherence assay. […]"}, "[2]": {"test_system": "P. falciparum-infected erythrocytes", "assay_type": "cell-based", "conditions": "FIG. 3A; read-out: IC50, competitive inhibition of cytoadherence", "method": "as §1, §2, §3"}, "[3]": {"target": "CD36 (Homo sapiens (Human), UniProt P16671)", "assay": "cell-based or functional assay"}, "[4]": {"target": "human band 3 protein (human, UniProt P02730)", "assay": "cell-based or functional assay"}}, "note": "Where no end group is shown, it is not given here. [ ]: non-standard residue; d: D form.", "data": [{"molecule": "FSFCETNGLE [Peptide 2f, FSFCETNGLE]", "values": [{"measurement": "IC50", "setting": "[1]", "value": 3000, "unit": "nM"}, {"measurement": "IC50", "setting": "[2]", "value": 4, "unit": "µM"}]}, {"molecule": "GHPLQKTY", "note": "[peptide 3d, GHPLQKTY]", "values": [{"measurement": "50% inhibition of sickle cell binding to HUVEC", "setting": "[3]", "value": 4, "unit": "µg/mL"}]}, {"molecule": "FSFCETNGLE", "note": "[peptide 2f, FSFCETNGLE]", "values": [{"measurement": "50% inhibition of sickle cell binding to HUVEC", "setting": "[4]", "value": 4, "unit": "µg/mL"}, {"measurement": "IC50 of inhibition of cytoadherence of P. falciparum-infected erythrocytes", "setting": "[4]", "value": 4, "unit": "µM"}, {"measurement": "IC50 of inhibition of rosetting of P. falciparum-infected erythrocytes", "setting": "[4]", "value": 3, "unit": "µM"}]}, {"molecule": "G[dH][dP][dL][dQ][dK][dT][dY]", "note": "[D-isomer of peptide 3d]", "values": [{"measurement": "50% inhibition of sickle cell binding to HUVEC", "setting": "[3]", "value": 4, "unit": "µg/mL"}]}]}
